{
  "source": "paper PMC5780510",
  "about": "“Insights into the molecular mechanism of dehalogenation catalyzed by D-2-haloacid dehalogenase from crystal structures” (Scientific Reports, 2018)",
  "molecular_target": "the molecule itself",
  "experiment": "crystal structure; hanging-drop vapour diffusion, 0.1 M MES pH 6.43, 4% PEG20000, 10% PEG8000, potassium sodium tartrate, 277 K; four monomers in each asymmetric unit",
  "data": [
    {"protein": "D-2-haloacid dehalogenase HadD AJ1 from Pseudomonas putida AJ1/23, wild type (enzyme, D-2-haloacid dehalogenase HadD AJ1, Pseudomonas putida strain AJ1/23; the 909 bp hadd aj1 gene (ENA AAA25831.1) subcloned into pET-28a between NcoI and XhoI; Homotetramer in the crystal; it gives no residue limits; also called WT; D-DEX) MNLPDNSIHLQLPRPVCEAIIRPVPEHRADQELSEIYRDLKATFGVPWVGVITQAVAYYRPFFAEAWRRFAPSAKTHFFERASDDIRIRSWELMGQSFVIEGQTDRLREMGYSVREIGQIRAVLDIFDYGNPKYLIFATAIKEGLLSGRTFGGAAGDARCHFPRSPICQIDPIPVMVEEHHAGGTLSQVYADIKQTLQLPFINSDYKAMARWPSYLEQAWGALKPCIDTPAYQAGRFDINARALAALDALPTAYRMSRDDALQAGLSEAQTDELIQVISLFQWMLSGLVLNVTHFKQQALK", "values": [
      {"measurement": "stoichiometry N", "value": 4}
    ]}
  ]
}
